Results taken from the Immune Epitope Database (IEDB).

How the values were obtained:
[1] = biological target: HLA-A*68:02; assay: IEDB peptide-MHC binding, purified MHC/competitive/radioactivity; filed as Kd, often an IC50 or EC50 that approximates it; ≥ and ≤ were set here for values at or beyond the usual limits of such assays
[2] = biological target: HLA-B*08:01; assay: as above
[3] = biological target: HLA-B*15:01; assay: as above
[4] = biological target: HLA-B*44:03; assay: as above
[5] = biological target: HLA-A*24:03; assay: IEDB peptide-MHC binding, purified MHC/direct/fluorescence; filed as Kd, often an IC50 or EC50 that approximates it; ≥ and ≤ were set here for values at or beyond the usual limits of such assays
[6] = biological target: HLA-A*32:01; assay: IEDB peptide-MHC binding, purified MHC/competitive/radioactivity; filed as Kd, often an IC50 or EC50 that approximates it; ≥ and ≤ were set here for values at or beyond the usual limits of such assays
[7] = biological target: HLA-A*26:01; assay: IEDB peptide-MHC binding, purified MHC/direct/fluorescence; filed as Kd, often an IC50 or EC50 that approximates it; ≥ and ≤ were set here for values at or beyond the usual limits of such assays
[8] = biological target: HLA-B*35:01; assay: IEDB peptide-MHC binding, purified MHC/competitive/radioactivity; filed as Kd, often an IC50 or EC50 that approximates it; ≥ and ≤ were set here for values at or beyond the usual limits of such assays
[9] = biological target: HLA-B*53:01; assay: as above; conditions: source organism: Dengue virus 1 Brazil/97-11/1997
[10] = biological target: HLA-A*30:02; assay: as above
[11] = biological target: HLA-A*01:01; assay: as above
[12] = biological target: HLA-A*01:01; assay: IEDB peptide-MHC binding, purified MHC/direct/fluorescence; filed as Kd, often an IC50 or EC50 that approximates it; ≥ and ≤ were set here for values at or beyond the usual limits of such assays; conditions: source organism: Pseudomonas putida
[13] = biological target: HLA-A*02:01; assay: as above; conditions: source organism: Pseudomonas putida
[14] = biological target: HLA-A*03:01; assay: as above; conditions: source organism: Pseudomonas putida
[15] = biological target: HLA-A*11:01; assay: as above; conditions: source organism: Pseudomonas putida
[16] = biological target: HLA-A*31:01; assay: as above; conditions: source organism: Pseudomonas putida
[17] = biological target: HLA-A*69:01; assay: as above; conditions: source organism: Pseudomonas putida
[18] = biological target: HLA-B*07:02; assay: as above; conditions: source organism: Pseudomonas putida
[19] = biological target: HLA-B*08:01; assay: as above; conditions: source organism: Pseudomonas putida
[20] = biological target: HLA-B*15:01; assay: as above; conditions: source organism: Pseudomonas putida
[21] = biological target: HLA-B*27:05; assay: as above; conditions: source organism: Pseudomonas putida
[22] = biological target: HLA-B*40:01; assay: as above; conditions: source organism: Pseudomonas putida
[23] = biological target: HLA-B*58:01; assay: as above; conditions: source organism: Pseudomonas putida
[24] = biological target: HLA-B*51:01; assay: IEDB peptide-MHC binding, purified MHC/competitive/radioactivity; filed as Kd, often an IC50 or EC50 that approximates it; ≥ and ≤ were set here for values at or beyond the usual limits of such assays; conditions: source organism: Dengue virus 4 Philippines/H241/1956
[25] = biological target: HLA-A*26:01; assay: as above
[26] = biological target: HLA-B*51:01; assay: IEDB peptide-MHC binding, purified MHC/competitive/fluorescence; filed as Kd, often an IC50 or EC50 that approximates it; ≥ and ≤ were set here for values at or beyond the usual limits of such assays; conditions: source organism: Yersinia pestis Nepal516
[27] = biological target: HLA-A*03:01; assay: IEDB peptide-MHC binding, purified MHC/competitive/radioactivity; filed as Kd, often an IC50 or EC50 that approximates it; ≥ and ≤ were set here for values at or beyond the usual limits of such assays; conditions: source organism: Vaccinia virus WR
[28] = biological target: HLA-A*11:01; assay: as above; conditions: source organism: Vaccinia virus WR
[29] = biological target: HLA-A*31:01; assay: as above; conditions: source organism: Vaccinia virus WR
[30] = biological target: HLA-A*33:01; assay: as above; conditions: source organism: Vaccinia virus WR
[31] = biological target: HLA-A*68:01; assay: as above; conditions: source organism: Vaccinia virus WR
[32] = biological target: HLA-A*02:02; assay: as above; conditions: source organism: Vaccinia virus WR
[33] = biological target: HLA-A*02:03; assay: as above; conditions: source organism: Vaccinia virus WR
[34] = biological target: HLA-A*02:06; assay: as above; conditions: source organism: Vaccinia virus WR
[35] = source organism: Dengue virus 2 Jamaica/1409/1983
[36] = source organism: Vaccinia virus WR
[37] = source organism: Dengue virus 4 Philippines/H241/1956
[38] = source organism: Dengue virus 3 Martinique/1243/1999
[39] = source organism: Dengue virus 1 Brazil/97-11/1997
[40] = source organism: Vaccinia virus Copenhagen
[41] = source organism: Dengue virus 3 Singapore/8120/1995
[42] = source organism: Dengue virus 2 16681-PDK53
[43] = source organism: Dengue virus 1 Singapore/S275/1990
[44] = source organism: Dengue virus 4 Dominica/814669/1981

TVTGGIFLFL
Kd [1, 35]: 0.0536 µM

LGRNKRPRL
Kd ([2]; source organism: Dengue virus 3 Sri Lanka/1266/2000): 0.0427 µM

NPQTKQMAF
Kd [2, 36]: 0.0143 µM

AVHQVFGSVY
Kd [3, 37]: 0.0011 µM

YISKVFEHV
Kd [3, 36]: 0.0942 µM

EETNMITLLV
Kd [4, 37]: 0.614 µM

MEAEGVITQ
Kd [4, 37]: 8.98 µM

RFTPVKHEL
Kd ([5]; source organism: Vibrio parahaemolyticus): 0.005 µM

AEWLWRTLGR
Kd [4, 38]: 0.314 µM

NEMVLLTMKE
Kd [4, 39]: 5.67 µM

RSWPLNEGI
Kd [6, 37]: 0.491 µM

SASSMINGV
Kd [1, 38]: 0.0289 µM

ETIDTIIDQ
Kd ([7]; source organism: Mammarenavirus lassaense): 0.954 µM

LAVSGVYPM
Kd [3, 39]: 0.0664 µM | Kd [8, 39]: 0.0167 µM | Kd [9]: 0.851 µM

ITYCLVTHM
Kd [3, 36]: 0.0253 µM

WLVLRINKAL
Kd ([1]; source organism: Homo sapiens): 4.45 µM

RYRGEDGCWY
Kd [10, 35]: 0.198 µM

TSKKRSWPL
Kd [2, 35]: 0.00582 µM

MRGAKRMAIL
Kd [2, 35]: 0.0542 µM

TLWAIINTI
Kd [6, 36]: 0.00152 µM

FSFMYIESI
Kd [3, 36]: 0.191 µM

LENENILHG
Kd [3, 40]: 0.309 µM

FSQHNYRQGY
Kd [11, 37]: 0.21 µM | Kd [10, 37]: 1.25 µM | Kd [3, 37]: 0.135 µM | Kd [8, 37]: ≥ 45.4 µM

LGSSFCLHA
Kd [3, 36]: ≥ 25.5 µM

ETPTWNRKEL
Kd [1, 38]: 0.872 µM

IISSTPFAEY
Kd [11, 37]: 3.44 µM | Kd [10, 37]: 0.0369 µM

NEMVLLQMED
Kd [4, 35]: 6.08 µM

ELKLFNVTL
Kd [2, 36]: 0.00468 µM

LTIESVNAL
Kd [6, 40]: 0.17 µM

FIWFIFHFV
Kd ([2]; source organism: Vaccinia virus): 3.16 µM

KETACLGKAY
Kd [4, 41]: 0.123 µM

DLSNSMRDF
Kd [12]: ≥ 20 µM | Kd [13]: ≥ 20 µM | Kd [14]: ≥ 20 µM | Kd [15]: ≥ 20 µM | Kd ([7]; source organism: Pseudomonas putida): 4.52 µM | Kd [16]: ≥ 20 µM | Kd [17]: ≥ 20 µM | Kd [18]: ≥ 20 µM | Kd [19]: ≥ 20 µM | Kd [20]: ≥ 20 µM | Kd [21]: ≥ 20 µM | Kd [22]: ≥ 20 µM | Kd [23]: ≥ 20 µM

ILVIFTVAI
Kd [6, 36]: 0.0153 µM

LSIPPTAGIL
Kd [2, 37]: 2.34 µM | Kd [24]: 9.47 µM

KTKLNDWDFV
Kd [6, 38]: 18.5 µM

LIITKVFSF
Kd [6, 36]: 0.0839 µM | Kd [3, 36]: 0.00768 µM

LSPVRVPNY
Kd [11, 35]: 5.42 µM | Kd [10, 35]: 0.0502 µM

EEISTSLSF
Kd [3, 36]: 0.00205 µM

RTVFFVLMML
Kd [1, 37]: 0.0179 µM

GGPISQHNY
Kd [10, 39]: 0.473 µM

PVPGDWLYF
Kd ([7]; source organism: Mycobacterium tuberculosis str. Haarlem): 1.29 µM

QLQVTEREEV
Kd ([1]; source organism: Homo sapiens): ≥ 60 µM

LAMNSVFTF
Kd [6, 40]: 0.0161 µM

ITNELNYVL
Kd [6, 37]: 0.0746 µM

IDKKGKVVGL
Kd [2, 42]: 13.7 µM

MVTHFDNTQV
Kd [1, 37]: 0.00999 µM

TWLPVLLGSL
Kd [2, 43]: 9.43 µM

TLKGMSYVM
Kd [3, 43]: 0.0176 µM

GKKHMIAGVL
Kd [2, 41]: 11.9 µM

HTTERGGKAY
Kd [11, 37]: 4.31 µM | Kd [25, 37]: 1.32 µM | Kd [3, 37]: 0.0505 µM

ILLKMVTHF
Kd [3, 37]: 0.00172 µM

LGKSEFQIY
Kd [10, 35]: ≥ 76.9 µM

ATAGLHLGF
Kd [6, 40]: 0.00169 µM

LLFNSSFCI
Kd [3, 36]: 0.104 µM

VVQPENLEY
Kd [11, 42]: 0.381 µM | Kd [10, 42]: 2.04 µM

HTTERGGRAY
Kd [11, 44]: 0.145 µM | Kd [25, 44]: 0.345 µM | Kd [3, 44]: 0.22 µM

EARKTFVDL
Kd [2, 35]: 0.57 µM

WNSGHEWVTD
Kd [6, 35]: ≥ 61.8 µM

SSMRKTDWL
Kd [2, 38]: 0.24 µM

SPYNFFKRI
Kd [2, 36]: 0.422 µM

SAKQLRTRI
Kd [2, 36]: 0.201 µM

WMINIMIHM
Kd [3, 36]: 0.667 µM

MLLVLCAVQL
Kd [2, 38]: 5.97 µM

STFSISSIF
Kd [6, 40]: 0.00105 µM

LPDTGSWGI
Kd [26]: ≥ 20 µM

WTLYAVATTI
Kd [1, 37]: 0.01 µM

ELCGAFLFY
Kd [27]: 0.156 µM | Kd [28]: 0.196 µM | Kd [29]: 1.03 µM | Kd [30]: 13.6 µM | Kd [31]: 0.277 µM | Kd [3, 36]: 0.00747 µM

KIDNYVVKF
Kd [6, 36]: 0.0194 µM

GASRRSWPL
Kd [2, 44]: 0.014 µM

AMEELPDTI
Kd [6, 39]: ≥ 21.4 µM

MMKERSTIL
Kd [2, 36]: 0.0349 µM

MTDEQIYAF
Kd [6, 36]: 0.0177 µM

GWALGYLYF
Kd ([5]; source organism: Mycobacterium tuberculosis): 0.0245 µM

ELNNTQCHI
Kd [3, 36]: 1.24 µM

SVMNFIPII
Kd [32]: 0.0132 µM | Kd [33]: 0.00626 µM | Kd [34]: 0.00283 µM | Kd [6, 36]: 0.000604 µM

FVKRKKLDI
Kd [2, 36]: 0.00298 µM

MSFSCIAIGI
Kd [1, 38]: 0.00517 µM

MLHCYESYM
Kd [3, 36]: 0.097 µM

DTMTYKCPRI
Kd [1, 39]: 0.064 µM

RSISRTENF
Kd [3, 36]: 0.00477 µM

PNTNRAWNSL
Kd [6, 35]: 1.56 µM
